Results on 9 molecules are retold here after article PMC5218472 (PLoS Biology, 2017).

The nature of data set [1]: in vitro peptide cleavage, 16 h, RP chromatography. The following applies: glycan gained.
In data set [2] the test system is ADAM10. The data set is described as follows: Ionomycin-induced ADAM10-mediated IL-6R ectodomain shedding in transiently transfected HEK293 cells, sIL-6R ELISA. It counts as cell-based, human. To be noted: normalised to PVQD Iono = 100, mean of n = 3. The text has this: Analysis of IL-6R ectodomain shedding in transiently transfected HEK293 cells or stably transduced Ba/F3-gp130 cell lines by ADAM10 and ADAM17 has been described elsewhere. Analysis of IL-6R proteolysis by CG has been described previously.
The sandwich ELISA, which detects sIL-6R as well as ds-sIL-6R (4-11/Baf227 antibodies) and can be used to quantify total sIL-6R serum levels, was described previously. To specifically detect ds-sIL-6R (either recombinant or in human serum), a similar approach was used (ds6R/Baf227). Both sandwich ELISAs were performed with streptavidin-horseradish peroxidase (R&D Systems, Minneapolis, Minnesota, US) and the peroxidase substrate BM blue POD (Roche, Mannheim, Germany). The enzymatic reaction was stopped by addition of 1.8 M sulfuric acid, and the absorbance read at 450 nm on a Tecan rainbow reader (Tecan, Crailsheim, Germany).
Supplementary file pbio.2000080.s004.tif: S4 Fig Mutation of Val-356 is sufficient to block ADAM10-mediated proteolysis of the IL-6R and the Asp358Ala variant. (A) HEK293 cells were transiently transfected with Expression plasmids encoding the wildtype IL-6R (PV) or the double mutants (IE, DG) as indicated. Cells were either treated with 1 μM ionomycin for 1 h or DMSO as vehicle control. sIL-6R was precipitated from the supernatant with concanavalin A-covered Sepharose beads, and cells were lysed. Both were analyzed via Western blot, and β-actin served as loading control. One out of three experiments with similar outcome is shown. (B, C) The experiment was performed as described under (A), but sIL-6R generation was analyzed via ELISA. In (B), the amount of sIL-6R generated after ionomycin-stimulation of the wildtype IL-6R (PV) was set to 100%, and all other values were calculated accordingly. In (C), the amount of sIL-6R without stimulation was considered as constitutive shedding and set to 1 and the increase of sIL-6R was calculated. Data shown are the mean ± SD from at least three independent experiments (*p<0.05, ns = no significant difference). (D-F) HEK293 cells were transiently transfected with expression plasmids encoding the wildtype IL-6R (PV) or the single mutants (DV, IV, PE, PG) as indicated. The experiments were performed as described in (A) to (C). (G) ADAM10-mediated proteolysis of the IL-6R variants depicted in Fig 4I was analyzed as described in (B). (H) Equal numbers of Ba/F3-gp130-IL-6R_DG cells were incubated for 48 h with increasing amounts (0–100 ng/ml) of either IL-6 or Hyper-IL-6. One representative experiment out of three performed is shown (mean ± SD, biological triplicates). (TIF) Click here for additional data file.

[3] abbreviates: control: unglycosylated synthetic peptide 1(QD).
Where [4] appears, read: control: unglycosylated synthetic peptide 2(QA), Asp358Ala.

B1: IL-6R / sIL-6R (interleukin-6 receptor): peptide 3(QD), GlcNAc at Asn-350 (protein)
parent chain: MLAVGCALLAALLAAPGAALAPRRCPAQEVARGVLTSLPGDSVTLTCPGVEPEDNATVHWVLRKPAAGSHPSRWAGMGRRLLLRSVQLHDSGNYSCYRAGRPAGTVHLLVDVPPEEPQLSCFRKSPLSNVVCEWGPRSTPSLTTKAVLLVRKFQNSPAEDFQEPCQYSQESQKFSCQLAVPEGDSSFYIVSMCVASSVGSKFSKTQTFQGCGILQPDPPANITVTAVARNPRWLSVTWQDPHSWNSSFYRLRFELRYRAERSKTFTTWMVKDLQHHCVIHDAWSGLRHVVQLRAQEEFGQGEWSEWSPEAMGTPWTESRSPPAENEVSTPMQALTTNKDDDNILFRDSANATSLPVQDSSSVPLPTFLVAGGSLAFGTLLCIAIVLRFKKTWKLRALKEGKTSMHPPYSLGQLVPERPRPTPVLVPLISPPVSPSSLGSDNTSSHNRPDARDPRSPYDISNTDYFFPR
Consider B1, for which the “other: proteolytic processing, other: percent peptide intact” value (“other … percent peptide intact” below) in data set [1] (setting [3]) is listed as “decreases”.

B2: IL-6R / sIL-6R (interleukin-6 receptor): peptide 6(QA), biantennary N-glycan at Asn-350 (protein)
parent chain: MLAVGCALLAALLAAPGAALAPRRCPAQEVARGVLTSLPGDSVTLTCPGVEPEDNATVHWVLRKPAAGSHPSRWAGMGRRLLLRSVQLHDSGNYSCYRAGRPAGTVHLLVDVPPEEPQLSCFRKSPLSNVVCEWGPRSTPSLTTKAVLLVRKFQNSPAEDFQEPCQYSQESQKFSCQLAVPEGDSSFYIVSMCVASSVGSKFSKTQTFQGCGILQPDPPANITVTAVARNPRWLSVTWQDPHSWNSSFYRLRFELRYRAERSKTFTTWMVKDLQHHCVIHDAWSGLRHVVQLRAQEEFGQGEWSEWSPEAMGTPWTESRSPPAENEVSTPMQALTTNKDDDNILFRDSANATSLPVQASSSVPLPTFLVAGGSLAFGTLLCIAIVLRFKKTWKLRALKEGKTSMHPPYSLGQLVPERPRPTPVLVPLISPPVSPSSLGSDNTSSHNRPDARDPRSPYDISNTDYFFPR
For B2, the “other … percent peptide intact” value in data set [1] (setting [4]) was “no change”.

B3: IL-6R / sIL-6R (interleukin-6 receptor): peptide 4(QA), GlcNAc at Asn-350 (protein)
parent chain: MLAVGCALLAALLAAPGAALAPRRCPAQEVARGVLTSLPGDSVTLTCPGVEPEDNATVHWVLRKPAAGSHPSRWAGMGRRLLLRSVQLHDSGNYSCYRAGRPAGTVHLLVDVPPEEPQLSCFRKSPLSNVVCEWGPRSTPSLTTKAVLLVRKFQNSPAEDFQEPCQYSQESQKFSCQLAVPEGDSSFYIVSMCVASSVGSKFSKTQTFQGCGILQPDPPANITVTAVARNPRWLSVTWQDPHSWNSSFYRLRFELRYRAERSKTFTTWMVKDLQHHCVIHDAWSGLRHVVQLRAQEEFGQGEWSEWSPEAMGTPWTESRSPPAENEVSTPMQALTTNKDDDNILFRDSANATSLPVQASSSVPLPTFLVAGGSLAFGTLLCIAIVLRFKKTWKLRALKEGKTSMHPPYSLGQLVPERPRPTPVLVPLISPPVSPSSLGSDNTSSHNRPDARDPRSPYDISNTDYFFPR
As for B3, the “other … percent peptide intact” value in data set [1] (setting [4]) is “no change, 0.4% ± 0.7% vs 1.0% ± 1.0%”.

B4: IL-6R / sIL-6R (interleukin-6 receptor): peptide 9(QD), biantennary N-glycan plus GalNAc (protein)
parent chain: MLAVGCALLAALLAAPGAALAPRRCPAQEVARGVLTSLPGDSVTLTCPGVEPEDNATVHWVLRKPAAGSHPSRWAGMGRRLLLRSVQLHDSGNYSCYRAGRPAGTVHLLVDVPPEEPQLSCFRKSPLSNVVCEWGPRSTPSLTTKAVLLVRKFQNSPAEDFQEPCQYSQESQKFSCQLAVPEGDSSFYIVSMCVASSVGSKFSKTQTFQGCGILQPDPPANITVTAVARNPRWLSVTWQDPHSWNSSFYRLRFELRYRAERSKTFTTWMVKDLQHHCVIHDAWSGLRHVVQLRAQEEFGQGEWSEWSPEAMGTPWTESRSPPAENEVSTPMQALTTNKDDDNILFRDSANATSLPVQDSSSVPLPTFLVAGGSLAFGTLLCIAIVLRFKKTWKLRALKEGKTSMHPPYSLGQLVPERPRPTPVLVPLISPPVSPSSLGSDNTSSHNRPDARDPRSPYDISNTDYFFPR
Take B4: the “other … percent peptide intact” value in data set [1] (setting [3]) is “abolishes”.

B5: IL-6R / sIL-6R (interleukin-6 receptor): peptide 7(QD), GalNAc at Thr-352 (protein)
parent chain: MLAVGCALLAALLAAPGAALAPRRCPAQEVARGVLTSLPGDSVTLTCPGVEPEDNATVHWVLRKPAAGSHPSRWAGMGRRLLLRSVQLHDSGNYSCYRAGRPAGTVHLLVDVPPEEPQLSCFRKSPLSNVVCEWGPRSTPSLTTKAVLLVRKFQNSPAEDFQEPCQYSQESQKFSCQLAVPEGDSSFYIVSMCVASSVGSKFSKTQTFQGCGILQPDPPANITVTAVARNPRWLSVTWQDPHSWNSSFYRLRFELRYRAERSKTFTTWMVKDLQHHCVIHDAWSGLRHVVQLRAQEEFGQGEWSEWSPEAMGTPWTESRSPPAENEVSTPMQALTTNKDDDNILFRDSANATSLPVQDSSSVPLPTFLVAGGSLAFGTLLCIAIVLRFKKTWKLRALKEGKTSMHPPYSLGQLVPERPRPTPVLVPLISPPVSPSSLGSDNTSSHNRPDARDPRSPYDISNTDYFFPR
For the molecule B5, the “other … percent peptide intact” value in data set [1] (setting [3]) is listed as “decreases”.

B6: IL-6R / sIL-6R (interleukin-6 receptor): peptide 10(QA), biantennary N-glycan plus GalNAc (protein)
parent chain: MLAVGCALLAALLAAPGAALAPRRCPAQEVARGVLTSLPGDSVTLTCPGVEPEDNATVHWVLRKPAAGSHPSRWAGMGRRLLLRSVQLHDSGNYSCYRAGRPAGTVHLLVDVPPEEPQLSCFRKSPLSNVVCEWGPRSTPSLTTKAVLLVRKFQNSPAEDFQEPCQYSQESQKFSCQLAVPEGDSSFYIVSMCVASSVGSKFSKTQTFQGCGILQPDPPANITVTAVARNPRWLSVTWQDPHSWNSSFYRLRFELRYRAERSKTFTTWMVKDLQHHCVIHDAWSGLRHVVQLRAQEEFGQGEWSEWSPEAMGTPWTESRSPPAENEVSTPMQALTTNKDDDNILFRDSANATSLPVQASSSVPLPTFLVAGGSLAFGTLLCIAIVLRFKKTWKLRALKEGKTSMHPPYSLGQLVPERPRPTPVLVPLISPPVSPSSLGSDNTSSHNRPDARDPRSPYDISNTDYFFPR
Regarding B6, the “other … percent peptide intact” value in data set [1] (setting [4]) is “decreases, 14.7% ± 6.3% vs 1.0% ± 1.0%”.

B7: IL-6R / sIL-6R (interleukin-6 receptor): peptide 5(QD), biantennary N-glycan at Asn-350 (protein)
parent chain: MLAVGCALLAALLAAPGAALAPRRCPAQEVARGVLTSLPGDSVTLTCPGVEPEDNATVHWVLRKPAAGSHPSRWAGMGRRLLLRSVQLHDSGNYSCYRAGRPAGTVHLLVDVPPEEPQLSCFRKSPLSNVVCEWGPRSTPSLTTKAVLLVRKFQNSPAEDFQEPCQYSQESQKFSCQLAVPEGDSSFYIVSMCVASSVGSKFSKTQTFQGCGILQPDPPANITVTAVARNPRWLSVTWQDPHSWNSSFYRLRFELRYRAERSKTFTTWMVKDLQHHCVIHDAWSGLRHVVQLRAQEEFGQGEWSEWSPEAMGTPWTESRSPPAENEVSTPMQALTTNKDDDNILFRDSANATSLPVQDSSSVPLPTFLVAGGSLAFGTLLCIAIVLRFKKTWKLRALKEGKTSMHPPYSLGQLVPERPRPTPVLVPLISPPVSPSSLGSDNTSSHNRPDARDPRSPYDISNTDYFFPR
Take B7: the “other … percent peptide intact” value in data set [1] (setting [3]) was “abolishes”.

B8: IL-6R / sIL-6R (interleukin-6 receptor): peptide 8(QA), GalNAc at Thr-352 (protein)
parent chain: MLAVGCALLAALLAAPGAALAPRRCPAQEVARGVLTSLPGDSVTLTCPGVEPEDNATVHWVLRKPAAGSHPSRWAGMGRRLLLRSVQLHDSGNYSCYRAGRPAGTVHLLVDVPPEEPQLSCFRKSPLSNVVCEWGPRSTPSLTTKAVLLVRKFQNSPAEDFQEPCQYSQESQKFSCQLAVPEGDSSFYIVSMCVASSVGSKFSKTQTFQGCGILQPDPPANITVTAVARNPRWLSVTWQDPHSWNSSFYRLRFELRYRAERSKTFTTWMVKDLQHHCVIHDAWSGLRHVVQLRAQEEFGQGEWSEWSPEAMGTPWTESRSPPAENEVSTPMQALTTNKDDDNILFRDSANATSLPVQASSSVPLPTFLVAGGSLAFGTLLCIAIVLRFKKTWKLRALKEGKTSMHPPYSLGQLVPERPRPTPVLVPLISPPVSPSSLGSDNTSSHNRPDARDPRSPYDISNTDYFFPR
As for B8, the “other … percent peptide intact” value in data set [1] (setting [4]) is “decreases, 10.8% ± 5.4% vs 1.0% ± 1.0%”.

B9: PVQA: IL-6R Asp358Ala variant (protein, UniProt P08887 20-468, looked up, variant D358A)
Interleukin-6 receptor …: LAPRRCPAQEVARGVLTSLPGDSVTLTCPGVEPEDNATVHWVLRKPAAGSHPSRWAGMGRRLLLRSVQLHDSGNYSCYRAGRPAGTVHLLVDVPPEEPQLSCFRKSPLSNVVCEWGPRSTPSLTTKAVLLVRKFQNSPAEDFQEPCQYSQESQKFSCQLAVPEGDSSFYIVSMCVASSVGSKFSKTQTFQGCGILQPDPPANITVTAVARNPRWLSVTWQDPHSWNSSFYRLRFELRYRAERSKTFTTWMVKDLQHHCVIHDAWSGLRHVVQLRAQEEFGQGEWSEWSPEAMGTPWTESRSPPAENEVSTPMQALTTNKDDDNILFRDSANATSLPVQASSSVPLPTFLVAGGSLAFGTLLCIAIVLRFKKTWKLRALKEGKTSMHPPYSLGQLVPERPRPTPVLVPLISPPVSPSSLGSDNTSSHNRPDARDPRSPYDISNTDYFFPR
Take B9: the results for the “sIL-6R shedding, Figure S4G, mean” value in data set [2] (treatment DMSO) and in data set [2] (treatment Iono) were 109.87 and 197.873, respectively.
